Reference: patent US20240043504A1 (published 2024)
Numbering of substitutions follows the chain as printed.

B1: mAb10965 (antibody, V domains shown)
VH: EVQLVESGGGLIQPGGSLRLSCAASVFTVSYNYMSWVRQAPGKGLEWVSVIYSGGSTYYADSVKGRFTISRDNSKNTLYLQMNSLRAEDTAVYYCARALPGWGGSFEYFDYWGQGTLVTVSS
VL: not shown
B2: mAb10956 (antibody, V domains shown)
VH: EVQLVESGGGLVQPGGSLRLSCAASGLTVSSNYMSWVRQAPGKGLEWVSVIYSGGSTFYADSVKGRFTISRDNSKNTLYLQMNSLRAEDTAVYYCARDLIKYGMDVWGQGTTVTVSS
VL: not shown
B3: mAb10957 (antibody, V domains shown)
VH: B2 VH with L27V, Y79F, A87I, I100G, K101P
VL: DIQLTQSPSFLSASVGDRVTITCRASQGISSYLAWYQQKPGKAPKLLIYAASTLQSGVPSRFSGSGSGTQFILTISSLQPEDFATYYCQQLNSYPGFTFGPGTKVDIKR
B4: mAb10971 (antibody, V domains shown)
VH: B2 VH with V12I, L27V, A60S, T68S, I100Y, K101Y
VL: B3 VL with S31T, Q70E, I72T, N92D, F97L, P101G, D106E
B5: mAb11006 (antibody, V domains shown)
VH: EVQLVESGGGLVQPGGSLRLSCAASGFIVSRNYMSWVRQAPGKGLEWVSVIYSGGSTFYADSVKGRFTISRHNSKNTLYLQMNSLKAEDTAVYYCARELRGYFDYWGQGTLVTVSS
VL: DIQLTQSPSFLSASVGDRVTITCWASQGISSYLAWYQQKPGKAPKLLIYAASTLQSGVPSRFSGSGSGTEFTLTISSLQPEDFATYYCQLLNSYPYTFGQGTKLEIKR
B6: mAb11008 (antibody, V domains shown)
VH: EVQLVESGGGLVQPGGSLRLSCAASGFTVSSNYMTWVRQAPGKGLEWVSVIYSGGSTFYADSVKGRFTISRHNSENTLYLQMNSLRAEDTAVYYCARDLAAAGTDYWGQGALVTVSS
VL: B5 VL with E81D, L90H, P95L
B7: mAb10954 (antibody, V domains shown)
VH: EVQLVESGGGLVQPGGSLRLSCAASGITVSSNYMSWVRQAPGKGLEWVSLIYSGGSTYYADSVKGRFTISRDNSKNTLYLQMNSLRVEDTAVYYCARDHGMAAAGYNYWGQGTLVTVSS
VL: DIQMTQSPSSLSASVGDRVTITCQASQDINKYLNWYQQKPGKAPKLLIYDASNLETGVPSRFSGSGSGTDFTFTINSLQPEDFATYFCQQYDNLPPAFGQGTKVEIKR
B8: mAb10967 (antibody, V domains shown)
VH: EVQLVESGGGLVQPGGSLRLSCAASGFTVSSNYMSWVRQAPGKGLEWVSVIYPGGSTFYADSVKGRFTISRDNSKNTLYLQMNSLRAEDTAVYYCARDQRDFAWGQGTLVTVSS
VL: B7 VL with N30S, K31N, N76S, S77G, F83I, F87Y, A97T, K103R, V104L
B9: mAb11010 (antibody, V domains shown)
VH: QVQLVESGGGVVQPGRSLRLSCAASGFTFSSYGMHWVRQAPGKGLEWVAVISYDGSYKYYADSVKGRFTISRDNSKNTLYLQMNSLRAEDTAVYYCAIDGGTVTTIFDYWGQGTLVTVSS
VL: not shown
B10: mAb10932 (antibody, V domains shown)
VH: EVQLVESGGGLVQSGGSLRLSCAASGLTVSSNYMSWVRQAPGKGLEWVSVIYSGGSTFYSDSVKGRFTISRHNSKNTLYLQMNSLRAEDTAVYYCARARGDAFDIWGQGTMVTVSS
VL: not shown
B11: mAb10998 (antibody, V domains shown)
VH: EVQLVESGGGLVHPGGSLRLSCAASGLTVSSNYMSWVRQAPGKGLEWVSVIYSGGSTYYADSVKGRFTISRHNSKNTLFLQMNSLRAEDTAVYYCARDRPITGTTLDVWGQGTTVTVSS
VL: DIQMTQSPSSLFASVGDRVTITCRASQSISSYLNWYQQKPGKAPKLLIYAASSLQSGVPSRFSGSGSGTDFTLTISSLQPEDFAFYYCQQTYSTPPITFGQGTRLEIKR
B12: mAb10955 (antibody, V domains shown)
VH: EVQLVESGGGLVQPGGSLRVSCAASGFTVSRNYMSWVRQAPGKGLEWVSVIYSGGSTFYADSVKGRFTISRDNSKNTLYLQMNSLRAEDTAIYYCARYIPRFDPWGQGTLVTVSS
VL: DIQMTQSPSSLSASVGDRVTITCQASQDISNYLNWFQQKPGRAPKLLIYDASNLETGVPSRFSGSGSGTDFTFTISSLQPEDIATYYCQQYDNLPITFGQGTRLEIKR
B13: mAb10964 (antibody, V domains shown)
VH: QVQLQESGPGLVKPSETLSLTCTVSGGSINNYYWIWIRQPPGKGLEWIGYIYHSGSTNYNPSLKSRVTISVDTSKNQFSLKVSSVTAADTAVYYCANMVRGVYEDDYWGQGTLVTVSS
VL: DIQMTQSPSSLSASVGDRVTITCRASQSISNYLNWYQQKPGKAPKLLIFAASSLRSGVPSRFSGSGSGTDFTLTISSLHPEDFATYYCQQNYNTPLTFGPGTKVDIKR
B14: mAb10982 (antibody, V domains shown)
VH: EVQLVESGGGLVQPGGSLRLSCAASGLTVSSNYMSWVRQAPGKGLEWVSVIYSGGTTYYADSVKGRFTISRHNSKNTLSLQMNSLRAEDTAVYYCARGEGANYYGMDVWGQGTTVTVSS
VL: QSVLTQPPSVSGAPGQRVTISCTGSSSNIGTGYDVHWYQQLPGTAPKLLIYGNSNRPSGVPDRFSGSKSGTSASLAITGLQAEDEADYYCQSYDSSLSGYVVFGGGTKLTVLG
B15: mAb10985 (antibody, V domains shown)
VH: EVQLVESGGGLVQPGRSLRLSCAASGFTFDDYAMHWVRQAPGKGLEWVSGISWNRGSIGYADSVKGRFTISRDNAKNSLYLQMSSLRAEDTALYYCAKDGERWDSVVVPSARNGMDVWGQGTTVTVSS
VL: B14 VL with T31A, Y100S, V101Y, G105T, L109V
B16: mAb10986 (antibody, V domains shown)
VH: EVQLVESGGGLVQPGGSLRLSCAASEFTVSSNYMSWVRQAPGKGLEWVSVIYSGGSTFYADSVKGRFTISRDNSKNTLYLQMNSLRAEDTAVYYCARALPYGDLHFDYWGQGTLVTVSS
VL: B14 VL with S54T, G99D, Y100S, V101Y, G105T, L109V
B17: mAb10989 (antibody, V domains shown)
VH: QVQLVQSGAEVKKPGASVKVSCKASGYIFTGYYMHWVRQAPGQGLEWMGWINPNSGGANYAQKFQGRVTLTRDTSITTVYMELSRLRFDDTAVYYCARGSRYDWNQNNWFDPWGQGTLVTVSS
VL: QSALTQPASVSGSPGQSITISCTGTSSDVGTYNYVSWYQQHPGKAPKLMIFDVSNRPSGVSDRFSGSKSGNTASLTISGLQAEDEADYYCSSFTTSSTVVFGGGTKLTVLG
B18: mAb10984 (antibody, V domains shown)
VH: EVQLVESGGGLVQPGGSLRLSCAASGLTVNRNYMSWVRQAPGKGLEWVSLIYSGGSTYYADSVKGRFTISRDNSKNTLYLQMNSLRLEDTAVYYCARGELGIPYGMDVWGQGTTVTVSS
VL: QSVLTQPPSVSAAPGQKVTISCSGSSSNIGNNYVSWYQQLPGTAPKLLIYDNNKRPSGIPDRFSGSKSGTSATLGITGLQTGDEADYYCGTWDSSLSAGVFGGGTKLTVLG
B19: mAb10969 (antibody, V domains shown)
VH: QVQLVESGGGVVQPGRSLRLSCAASGFTFSSYAMHWVRQAPGKGLEWVAVISYDGSNKYYADSVKGRFTISRDNSKNTLYLQMNSLRAEDTAVYYCARDGRTITMVRGVIDDAFDIWGQGTMVTVSS
VL: not shown
B20: mAb10966 (antibody, V domains shown)
VH: EVQLVESGGGLVQPGGSLRLSCAASGLTVSSNYMSWVRQAPGKGLEWVSVIYSGGSTFYADSVKGRFTISRDNSKNTLYLQMNSLRPEDTAVYYCAREGRIAATGYGMDVWGQGTTVTVSS
VL: not shown
B21: mAb11002 (antibody, V domains shown)
VH: EVQLVESGGGLVQPGGSLRLSCAASGFTVSSNYMSWVRQAPGKGLEWVSVIYSGGSTFYADSVKGRFTISRHNSKNTLYLQMNSLRAEDTAVYYCAREGYGMDVWGQGTTVTVSS
VL: not shown
B22: mAb10913 (antibody, V domains shown)
VH: EVQLVESGGGLVQPGGSLRLSCAASGFTFRNYEMNWVRQAPGKGLEWVSYITSSGSTMYYADSVKGRFTISRDNAKNSLYLQMNSLRAEDTAVYYCARDGFYYYYAMDVWGQGTTVTVSS
VL: QSVLTQPPSVSAAPGQKVTISCSGSSSNIGNNYVSWYQQLPGTAPKLLIYDNNKRPSGIPDRFSGSKSGTSATLGITGLQTGDEADYYCGTWDSSLSVGRVFGTGTKVTVLG
B23: mAb11004 (antibody, V domains shown)
VH: QVQLVESGGGVVQPGRSLRLSCVASGFTFSIYGMDWVRQAPGKGLEWVAVISYDGSNKYYADSVKGRFTISRDNSKNTLYLQMNSLRPEDTAVYYCAKDREAAADAFDIWGQGTMVTVSS
VL: DIQMTQSPSSVSASVGDRVTITCRASQGISSWLAWYQQKPGKAPKLLIYAASSLHSGVPSRFSGSGSGTDFTLTISSLQPEDFATYYCQQANSFRLTFGGGTKVEIKR

Tests used:
[1] = molecular target: SARS-COV-2 RBD extracellular domain expressed with a C-terminal mouse IgG2a (SARS-COV-2 RBD-mFc) (SARS-CoV-2); experiment: SPR, captured mAb, RBD-mFc in solution, 37 C
[2] = molecular target: SARS-CoV-2 RBD extracellular domain expressed with a C-terminal mouse IgG2a (SARS-COV-2 RBD-mFc) (SARS-CoV-2)

Binder | Kd [1] [nM] | t½ [1] [h] | further results
B1 | 0.237 | 0.57 | –
B2 | 0.158 | 0.563 | –
B3 | 0.0463 | 2.68 | –
B4 | 0.0397 | 2.04 | koff [1]: 9.41e-05 s⁻¹; kon [1]: 2.37e+06 M⁻¹ s⁻¹
B5 | 0.197 | 2.52 | –
B6 | 0.872 | 0.475 | koff [1]: 0.000405 s⁻¹; kon [1]: 464000 M⁻¹ s⁻¹
B7 | 0.0369 | – | –
B8 | 0.0229 | 5.78 | –
B9 | 0.0505 | 2.4 | –
B10 | – | – | Kd [2]: ≤ 0.0413 nM; koff [2]: ≤ 1e-05 s⁻¹; kon [2]: 242000 M⁻¹ s⁻¹; t1/2 [2]: ≥ 19.2 h
B11 | 22.4 | 0.01 | koff [1]: 0.0197 s⁻¹; kon [1]: 879000 M⁻¹ s⁻¹
B12 | 0.202 | 0.497 | –
B13 | – | 1.53 | –
B14 | 0.21 | 0.747 | koff [1]: 0.000258 s⁻¹; kon [1]: 1.23e+06 M⁻¹ s⁻¹
B15 | 0.0401 | 0.513 | –
B16 | 0.0126 | 3.32 | –
B17 | – | 0.527 | –
B18 | 0.0404 | 2.3 | –
B19 | 0.174 | 1.36 | –
B20 | 0.0405 | 1.94 | –
B21 | 32.6 | 0.0117 | –
B22 | – | – | Kd [2]: 0.244 nM; koff [2]: 0.000152 s⁻¹; kon [2]: 623000 M⁻¹ s⁻¹; t1/2 [2]: 1.27 h
B23 | 0.117 | 1.63 | koff [1]: 0.000118 s⁻¹; kon [1]: 1.01e+06 M⁻¹ s⁻¹
